Target: EphB4 on CD4+ T cells isolated from the spleens of tumor-bearing mice (mouse) (UniProt P54761)
Experiment: cell-based or functional assay

UniProt P54761, sequence (P54761 16-987): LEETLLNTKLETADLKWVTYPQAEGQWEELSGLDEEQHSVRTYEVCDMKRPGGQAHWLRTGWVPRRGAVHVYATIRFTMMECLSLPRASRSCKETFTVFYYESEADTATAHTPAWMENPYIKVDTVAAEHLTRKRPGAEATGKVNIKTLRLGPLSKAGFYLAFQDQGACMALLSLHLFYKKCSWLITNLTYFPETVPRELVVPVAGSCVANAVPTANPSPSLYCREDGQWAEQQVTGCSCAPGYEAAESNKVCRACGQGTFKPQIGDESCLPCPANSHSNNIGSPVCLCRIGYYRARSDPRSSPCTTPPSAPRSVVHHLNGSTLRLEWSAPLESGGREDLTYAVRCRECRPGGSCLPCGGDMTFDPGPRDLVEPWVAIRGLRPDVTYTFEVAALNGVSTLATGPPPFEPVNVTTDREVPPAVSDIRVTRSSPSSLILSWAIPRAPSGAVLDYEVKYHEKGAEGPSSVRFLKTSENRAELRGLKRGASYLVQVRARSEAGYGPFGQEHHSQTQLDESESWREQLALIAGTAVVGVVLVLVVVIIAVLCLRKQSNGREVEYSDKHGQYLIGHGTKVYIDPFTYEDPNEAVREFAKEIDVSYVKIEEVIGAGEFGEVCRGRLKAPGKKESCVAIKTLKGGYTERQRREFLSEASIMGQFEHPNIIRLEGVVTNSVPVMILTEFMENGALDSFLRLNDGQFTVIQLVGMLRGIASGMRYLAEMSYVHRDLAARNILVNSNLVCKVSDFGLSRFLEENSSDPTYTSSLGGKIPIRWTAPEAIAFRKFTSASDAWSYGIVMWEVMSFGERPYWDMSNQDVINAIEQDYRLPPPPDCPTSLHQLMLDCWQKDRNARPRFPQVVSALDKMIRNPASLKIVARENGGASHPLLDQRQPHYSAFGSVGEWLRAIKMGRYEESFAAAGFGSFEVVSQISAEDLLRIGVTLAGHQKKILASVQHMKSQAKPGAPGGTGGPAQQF

- fold decrease in Ki67 expressing Tregs (flow cytometry): 1.7 fold
Substance: recombinant ephrin-B2-Fc (Fc fusion)

— patent publication US20220249621A1
